Laboratory results published in article doi:10.1101/2024.05.17.594765.

B1: C-terminally Halo-tagged full-length zyxin (zyxin-Halo) [modified: Janelia Fluor 646 Halo-ligand conjugated to the Halo tag; Janelia Fluor 646 Halo-ligand conjugated to the Halo tag] [human] / C-terminally … (parent)
chain 1: MSETVICSSRATVMLYDDGNKRWLPAGTGPQAFSRVQIYHNPTANSFRVVGRKMQPDQQVVINCAIVRGVKYNQATPNFHQWRDARQVWGLNFGSKEDAAQFAAGMASALEALEGGGPPPPPALPTWSVPNGPSPEEVEQQKRQQPGPSEHIERRVSNAGGPPAPPAGGPPPPPGPPPPPGPPPPPGLPPSGVPAAAHGAGGGPPPAPPLPAAQGPGGGGAGAPGLAAAIAGAKLRKVSKQEEASGGPTAPKAESGRSGGGGLMEEMNAMLARRRKATQVGEKTPKDESANQEEPEARVPAQSESVRRPWEKNSTTLPRMKSSSSVTTSETQPCTPSSSDYSDLQRVKQELLEEVKKELQKVKEEIIEAFVQELRKRGSP
chain 2: MAAPRPSPAISVSVSAPAFYAPQKKFGPVVAPKPKVNPFRPGDSEPPPAPGAQRAQMGRVGEIPPPPPEDFPLPPPPLAGDGDDAEGALGGAFPPPPPPIEESFPPAPLEEEIFPSPPPPPEEEGGPEAPIPPPPQPREKVSSIDLEIDSLSSLLDDMTKNDPFKARVSSGYVPPPVATPFSSKSSTKPAAGGTAPLPPWKSPSSSQPLPQVPAPAQSQTQFHVQPQPQPKPQVQLHVQSQTQPVSLANTQPRGPPASSPAPAPKFSPVTPKFTPVASKFSPGAPGGSGSQPNQKLGHPEALSAGTGSPQPPSFTYAQQREKPRVQEKQHPVPPPAQNQNQVRSPGAPGPLTLKEVEELEQLTQQLMQDMEHPQRQNVAVNELCGRCHQPLARAQPAVRALGQLFHIACFTCHQCAQQLQGQQFYSLEGAPYCEGCYTDTLEKCNTCGEPITDRMLRATGKAYHPHCFTCVVCARPLEGTSFIVDQANRPHCVPDYHKQYAPRCSVCSEPIMPEPGRDETVRVVALDKNFHMKCYKCEDCGKPLSIEADDNGCFPLDGHVLCRKCHTARAQT

Variants of: B1
Assay: force reconstitution TIRF assay
Conditions: with C-terminally Halo-tagged VASP (VASP-Halo) [modified: Janelia Fluor 549 Halo-ligand conjugated to the Halo tag, images were acquired every 1 s, read off a plot

Row | Variant | screen value
1 | chain 2 F71A F93A F104A F114A | 38

Variants of: B1
Assay: force reconstitution TIRF assay
Conditions: with C-terminally Halo-tagged VASP (VASP-Halo) [modified: Janelia Fluor 549 Halo-ligand conjugated to the Halo tag, images were acquired every 1 s, read off a plot
Remark: another data set of the same source

Row | Variant | screen value
2 | chain 2 F71A F93A F104A F114A | 2.6 s
